From article PMC5949987
Values belong to the substance of their own block, whether it stands above or below them.

Legend:
β2AR–SmBit = β2AR–SmBit (UniProt P07550); assay: split reporter (BiFC, NanoBiT); NanoLuc complementation in intact HEK 293 cells cotransfected with receptor–SmBit and LgBit–mG; total luminescence with furimazine against agonist concentration
β2AR–Rluc8 = β2AR–Rluc8 (UniProt P07550); assay: FRET or BRET; intact HEK 293 cells with agonist; receptor–Rluc8 or receptor–Nluc as donor, NES–venus–mG as acceptor; net BRET; DPBS, 96-well plates
cerulean–β2AR = cerulean–β2AR (UniProt P07550); assay: calibrated confocal fluorescence intensities at the plasma membrane; HEK 293 cells expressing cerulean-β2AR and venus–mGs, 10 μM isoproterenol, steady state; venus and cerulean intensities calibrated with the standard protein cerulean–TM–venus; n = 17

fold increase in luminescence intensity on agonist stimulation (β2AR–SmBit): < 20 fold
Substance: LgBit–mGs

time to dissociate after addition of the inverse agonist ICI 118,551 (β2AR–Rluc8): > 15 min
Substance: NES–venus–mGs (domain or fragment)

stoichiometry N (venus–mGs per cerulean–β2AR) (cerulean–β2AR): 1.17
Substance: venus–mGs (domain or fragment)
